First the molecules themselves.
B1: Zinc finger protein GLI1 (Homo sapiens), P08151 (parent)
chain: MFNSMTPPPISSYGEPCCLRPLPSQGAPSVGTEGLSGPPFCHQANLMSGPHSYGPARETNSCTEGPLFSSPRSAVKLTKKRALSISPLSDASLDLQTVIRTSPSSLVAFINSRCTSPGGSYGHLSIGTMSPSLGFPAQMNHQKGPSPSFGVQPCGPHDSARGGMIPHPQSRGPFPTCQLKSELDMLVGKCREEPLEGDMSSPNSTGIQDPLLGMLDGREDLEREEKREPESVYETDCRWDGCSQEFDSQEQLVHHINSEHIHGERKEFVCHWGGCSRELRPFKAQYMLVVHMRRHTGEKPHKCTFEGCRKSYSRLENLKTHLRSHTGEKPYMCEHEGCSKAFSNASDRAKHQNRTHSNEKPYVCKLPGCTKRYTDPSSLRKHVKTVHGPDAHVTKRHRGDGPLPRAPSISTVEPKREREGGPIREESRLTVPEGAMKPQPSPGAQSSCSSDHSPAGSAANTDSGVEMTGNAGGSTEDLSSLDEGPCIAGTGLSTLRRLENLRLDQLHQLRPIGTRGLKLPSLSHTGTTVSRRVGPPVSLERRSSSSSSISSAYTVSRRSSLASPFPPGSPPENGASSLPGLMPAQHYLLRARYASARGGGTSPTAASSLDRIGGLPMPPWRSRAEYPGYNPNAGVTRRASDPAQAADRPAPARVQRFKSLGCVHTPPTVAGGGQNFDPYLPTSVYSPQPPSITENAAMDARGLQEEPEVGTSMVGSGLNPYMDFPPTDTLGYGGPEGAAAEPYGARGPGSLPLGPGPPTNYGPNPCPQQASYPDPTQETWGEFPSHSGLYPGPKALGGTYSQCPRLEHYGQVQVKPEQGCPVGSDSTGLAPCLNAHPSEGPPHPQPLFSHYPQPSPPQYLQSGPYTQPPPDYLPSEPRPCLDFDSPTHSTGQLKAQLVCNYVQSQQELLWEGGGREDAPAQEPSYQSPKFLGGSQVSPSRAKAPVNTYGPGFGPNLPNHKSGSYPTPSPCHENFVVGANRASHRAAAPPRLLPPLPTCYGPLKVGGTNPSCGHPEVGRLGGGPALYPPPEGQVCNPLDSLDLDNTQLDFVAILDEPQGLSPPPSHDQRGSSGHTPPPSGPPNMAVGNMSVLLRSLPGETEFLNSSA
B2: Zinc finger protein GLI1 (Homo sapiens), P08151 (parent)
chain: B1 chain
partner: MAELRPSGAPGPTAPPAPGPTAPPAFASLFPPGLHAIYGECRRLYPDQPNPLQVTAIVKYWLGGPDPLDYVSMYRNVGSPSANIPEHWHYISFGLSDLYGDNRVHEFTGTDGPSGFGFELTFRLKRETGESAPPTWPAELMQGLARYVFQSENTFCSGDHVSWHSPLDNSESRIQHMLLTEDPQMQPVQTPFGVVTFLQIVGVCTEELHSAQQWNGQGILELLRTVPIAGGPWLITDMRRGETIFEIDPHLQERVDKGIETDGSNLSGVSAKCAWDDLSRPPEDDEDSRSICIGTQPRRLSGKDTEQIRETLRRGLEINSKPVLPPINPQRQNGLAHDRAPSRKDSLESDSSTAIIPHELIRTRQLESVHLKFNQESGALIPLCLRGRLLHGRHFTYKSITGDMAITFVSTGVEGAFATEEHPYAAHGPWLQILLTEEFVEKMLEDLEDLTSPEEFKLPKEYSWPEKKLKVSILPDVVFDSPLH

In the first test the parent is B1. To be noted: with RPS6KB1, P23443-2.
Sequence of RPS6KB1, P23443-2 (P23443 24-525): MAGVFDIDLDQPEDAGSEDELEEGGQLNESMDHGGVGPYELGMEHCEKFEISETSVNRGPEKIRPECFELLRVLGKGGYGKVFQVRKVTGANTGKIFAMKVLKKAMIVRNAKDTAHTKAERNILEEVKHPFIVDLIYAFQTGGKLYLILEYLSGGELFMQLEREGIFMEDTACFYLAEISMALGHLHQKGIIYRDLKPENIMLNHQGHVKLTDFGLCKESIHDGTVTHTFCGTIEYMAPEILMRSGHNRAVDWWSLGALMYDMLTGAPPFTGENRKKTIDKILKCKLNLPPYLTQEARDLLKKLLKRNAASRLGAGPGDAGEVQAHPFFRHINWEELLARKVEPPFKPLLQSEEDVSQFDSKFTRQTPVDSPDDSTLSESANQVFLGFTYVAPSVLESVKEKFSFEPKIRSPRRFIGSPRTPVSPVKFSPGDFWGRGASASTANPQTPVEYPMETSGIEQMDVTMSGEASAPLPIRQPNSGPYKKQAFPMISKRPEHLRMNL
S84A: the “effect of a mutation on the interaction” value is on record as “disrupting interaction”.

In another test the parent is B2. To be noted: with sufu_human SUFU.
Turning to S84E, the “effect of a mutation on the interaction” value is “decreasing interaction”.

For the origin of these results see IntAct's records for PubMed 22439934.
